Measurements as given in patent US20220098328A1, “ANTIBODIES TO M(H)DM2/4 AND THEIR USE IN DIAGNOSING AND TREATING CANCER” (NomoCan Pharmaceuticals LLC, priority 2017, published 2022).

B1: NMC-204: mouse monoclonal antibody of the IgG3 isotype that binds to NMC-P2 (SEQ ID NO:2); VH SEQ ID NO:38, VL SEQ ID NO:39 (antibody, V domains shown)
VH: EVQLQESGSVLVRPGASVKLSCKASGDTLSGSWMHWAMQRPGQGLEWIGEIHLNRGTTNYNEKFKGKATVTVDTSSSTAYVDLSSLTSEDSAVYYCARSPGFAYWGQGTLVTVSA
VL: GIVMTQAAPSVPVTPGESVSISCRSSKSLLHSNGNSYLYWFLQRPGQSPQLLIYRMSNLASGVPDRFSGSGSGTAFTLRITRVEAEDVGVYYCMQHLEYPFTFGSGTKLEIK
modifications: mAb NMC-204 Heavy Chain Variable Region; mAb NMC-204 Light Chain Variable Region
B2: NMC-H103 (VH4/VK3): humanized NMC-103 variant, human IgG1, VH4 (SEQ ID NO:299) and VK3 (SEQ ID NO:297) (antibody, V domains shown)
VH: EVQLVESGGGLVQPGPSLRLSCTTSGFTFTHYYMSWVRQAPGKGLEWLGFIRNKAKGYTAEYSASVKGRFTISRDNSKSTLYLQMNSLRAEDTAVYYCARDIGDNWGQGTLVTVSS
VL: DIVMTQTPLSSPVTLGQPASISCRSSKNLLHSNGITYLYWYLQKPGQSPQLLISRVSNLASGVPDRFSGSESGTDFTLKISRVEAEDVGVYFCAQLLELPYTFGGGTKVEIK
modifications: human IgG1 constant regions lacking entries; mAb NMC-H103.VH4Heavy Chain Variable Region; mAb NMC-H103.VK3Light Chain Variable Region

Columns and labels:
[1] = target: NMC-P3 peptide (SEQ ID NO:3), amino acids 475-491 of HDM2 (Homo sapiens, UniProt Q00987); experiment: Peptide-ELISA; type: binding; settings: 5 μg/ml peptide on plate, OD 450 nm
Procedure: Peptide-ELISA Methodology: 5 μg/ml of NMC-P1, NMC-P2 or NMC-P3 peptide antigen was dried onto a 96-well ELISA plate overnight. Plates were then blocked with 5% BSA in 1× phosphate-buffered saline (PBS) (100 μl/well) for 2 hours at room temperature. Microplate wells were then washed 5 times with 300 μl of ice cold 1×PBS. Appropriate dilutions of monoclonal antibodies NMC-103, NMC-204 or NMC-303 in 1% bovine serum albumin (BSA) in PBS solution were then incubated with their corresponding peptides (NMC-P1, NMC-P2 or NMC-P3, respectively) at room temperature. After 2 hours, wells were washed 5 times with 300 μl ice-cold PBS/well and 100 μl secondary antibody (HRP-labeled Goat anti-Mouse F(ab′)2 H&L cross-adsorbed secondary antibody (HRP-GaM F(ab′)2), ThermoFisher, Cat. No. A24524) diluted 1:2500 to 1:5000 in PBS-1% BSA solution were added and the incubation continued at room temperature. After 1 hour, the wells were washed again 5 times with 200 μl of ice-cold PBS and 50 μL of the TMB Substrate Solution (1-Step™ Ultra TMB-ELISA, ThermoFisher, Cat. No. 34028) were added to each well and color was allowed to develop for 30 minutes at room temperature. The reaction was stopped by addition of 50 μL of stop solution (ThermoFisher, Cat. No. SS04) to each well and absorbance of each well was read immediately for optical density (OD) at 450 nm.

[2] = test system: HeLa cervical cancer cells; experiment: Cell-ELISA on intact cells; type: cell-based, human; settings: mAb 5 μg/mL
Procedure: In a 96-well microplate, 15,000 cells/well were cultured overnight. The next day, unbound cells were washed off with sterile 1×PBS. The cells in each well were fixed with freshly prepared 4% buffered paraformaldehyde (pH 7.2) for 1 hour, followed by 3 washes with 1×PBS. The wells were then blocked with 5% BSA in PBS (100 μl/well) for 2 hours at room temperature. Microplate wells were then washed 5 times with 300 μl of ice cold 1×PBS. Monoclonal antibodies NMC-H103 (VH4/VK3) or NMC-C303 at 5 μg/mL in 1% BSA/PBS were then incubated with various cancer cells for 2 hours at room temperature. Wells were then washed with 300 μl of ice-cold 1×PBS for 5 times and corresponding secondary antibody HRP-GaH F(ab′)2 diluted 1:2000 or 1:4000 in PBS with 1% BSA were added at 100 μl/well for 1 hour at room temperature followed by washing 5 times with 300 μl of ice-cold 1×PBS. TMB Substrate Solution (1-Step™ Ultra TMB-ELISA, ThermoFisher, Cat. No. 34028) was then added at 50 μL to each microplate well and incubated at room temperature for 30 minutes. The reaction was stopped by addition of 50 μL of stop solution (ThermoFisher, Cat. No. SS04) to each well and absorbance of each well was measured at OD450 nm. The absorbance value of each experimental well was corrected for the absorbance value obtained from wells treated with isotype-identical mAbs included in each experiment.

[3] = test system: human lung cancer A549 cells; experiment: A549 tumors in NSG mice with or without Hu-PBMCs; type: in vivo; settings: 1 i.p. dose 10 mg/kg, n=4
Procedure: Subcutaneous tumors were prepared by implanting either mouse colon MC-38 cells (5×10^5 cells/mouse), human lung cancer A549 cells (5×10^6 cells/mouse) or mouse lung cancer M109 cells (0.5×10^5 cells/mouse) in the right flanks of NOD scid gamma mice (NSG: NOD.Cg-Prkdc^scidIl2rg^tm1Wjl/SzJ) purchased from Jacksons Laboratory. From day 7 after tumor implantation, the tumor volumes were measured 2 times/week with a digital caliper. In the case of mouse colon MC-38 cells and human lung cancer A549 cells study in NSG mice, once tumors reached an average volume of 300-400 mm^3, mice were randomly divided into 3 groups (n=4) and 7×10^6 human PBMCs (Stem Cell Technologies Cat #70025) was injected into the tail vein of mice in groups 1 and 3. Seven days later, in the case of mouse colon MC-38 cells study, mAb NMC-C303 antibody (10 mg/kg) was injected intraperitoneally (i.p.) to mice in groups 2 and 3 and human isotype control antibody (BioXCell BP02) into mice in group 1 on days 33 and 35 post tumor inoculation. In the case of human lung cancer A549 cells study, seven days post PBMC injection, mice in group 2 and 3 received 1 intraperitoneal injection of mAb NMC-H103 (VH4/VK3) (10 mg/kg) while mice in group 1 received 1 injection of human isotype control antibody (BioXCell BP02) and tumors were measure 5 days later. […]

[4] = test system: OVCAR-3 cells; experiment: Flow cytometry on live (7AAD negative) cells; type: cell-based, human
Procedure: Cells that had been allowed to grow to about 80% confluency in 75 cm^2 tissue culture flasks were released with either EDTA (10 mmols; pH 7.2; 5 min, 37° C.) or Trypsin (Gibco TrypLE Express), washed several times with ice-cold PBS, and blocked for 20 minutes on ice with 5% human serum albumin in PBS (intact, non-permeabilized cells). After establishing viability, the cell number was adjusted to 10^6 cells/ml and kept in ice-cold PBS until staining. Cells were then incubated with primary antibodies NMC-H103 (VH4/VK3) or NMC-C303 (1 μg/ml) for 30 minutes on ice. Following primary antibody incubation, cells were washed 3 times with ice-cold PBS, followed by incubation with goat anti-human PE labeled secondary antibody (Life technologies H10104) on ice for 20 minutes. Cells were then washed 3 times with PBS and incubated with 7AAD (5 μl/[…] of buffer) before flow cytometry analysis using Fortessa 5.

| binding to NMC-P3 peptide [1] | Molecule | binding to intact, un-permeabilized cells, cell-based ELISA [2] | average tumor volume ([3]; NSG mice in presence of Hu-PBMCs) | average tumor volume ([3]; NSG mice in the absence of Hu-PBMCs) | binding to live cells briefly treated with trypsin, flow cytometry ([4]; 7AAD negative) | binding to live (7AAD negative) cells, flow cytometry ([4]; antibody 1 μg/ml) |
| --- | --- | --- | --- | --- | --- | --- |
| did not bind | B1 |  |  |  |  |  |
|  | B2 | binding | 784 mm^3 | 1367 mm^3 | reduced | binding |
